Target: TNFα (tumour necrosis factor alpha) (UniProt P01375 77-233, limits assumed)
Test: cell-based or functional assay

Sequence of TNFα (tumour necrosis factor alpha) (P01375 77-233 limits assumed): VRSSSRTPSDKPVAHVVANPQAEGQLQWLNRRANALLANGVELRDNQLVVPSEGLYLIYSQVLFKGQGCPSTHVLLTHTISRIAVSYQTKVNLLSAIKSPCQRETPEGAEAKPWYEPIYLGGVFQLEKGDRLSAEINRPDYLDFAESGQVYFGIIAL

B1: TB-H_F68V_F70L (scFv)
scFv: DIVMTQSPSSLSASVGDRVTLTCTASQSVSNDVVWYQQRPGKAPKLLIYSAFNRYTGVPSRFSGRGYGTDFTLTISSLQPEDVAVYYCQQDYNSPRTFGQGTKLEVKRGGGGSGGGGSGGGGSSGGGSQVQLVQSGAEVKKPGASVKVSCTASGYTFTHYGMNWVRQAPGKGLEWMGWINTYTGEPTYADKFKDRVTLSLETSASTVYMELTSLTSDDTAVYYCARERGDAMDYWGQGTLVTVSS
How did the “Relative potency: EC50X/EC50ESBA105, L929 cells” value turn out when B1 was run?
The value was 1.28 ratio EC50X/EC50ESBA105.

B2: TB-H_F70L (scFv)
scFv: DIVMTQSPSSLSASVGDRVTLTCTASQSVSNDVVWYQQRPGKAPKLLIYSAFNRYTGVPSRFSGRGYGTDFTLTISSLQPEDVAVYYCQQDYNSPRTFGQGTKLEVKRGGGGSGGGGSGGGGSSGGGSQVQLVQSGAEVKKPGASVKVSCTASGYTFTHYGMNWVRQAPGKGLEWMGWINTYTGEPTYADKFKDRFTLSLETSASTVYMELTSLTSDDTAVYYCARERGDAMDYWGQGTLVTVSS
For B2, which “Relative potency: EC50X/EC50ESBA105, L929 cells” value is on record?
The value was 2.7 ratio EC50X/EC50ESBA105.
